In experiment [1] the target is Melan-A/MART-1 27-35 epitope …. Nature of the experiment: cell-based or functional assay.
In experiment [2] the target is gp100 280-288 …. Nature of the experiment: cell-based or functional assay.
Experiment [3] concerns the target Melan-A/MART-1 27-35 epitope-analogue AIGIGLTV (SEQ ID NO: 30). Nature of the experiment: cell-based or functional assay.
For experiment [4], the target named is gp100 280-288 …. In words: cell-based or functional assay. The source holds these as a separate data set.
Experiment [5] concerns the target gp100 154-162 epitope …. In words: cell-based or functional assay.
The target in experiment [6] is gp100 154-162 epitope-analogue …. Nature of the experiment: cell-based or functional assay.
Experiment [7] has as its target T1, HLA-A*0201 (human).
T1 construct: also called HLA-A2.1; HLA-A2
In words: T2 cell HLA-A*0201 stabilization, flow cytometry with mAb BB7.2.

Experiment [8] concerns the target T1, HLA-A*0201. The experiment is described as above. The source holds these as a separate data set.
Experimental: (§1) Briefly, peptides were diluted from DMSO stocks to various concentrations (final DMSO concentration 0.5%) and were incubated together with 10⁵ T2 cells for 14 hours at 37° C., 5% CO₂ in serum-free Iscoves medium in a volume of 100 ml in the presence of 3 mg/ml human β2-microglobulin (Sigma, St Louis, Mo.). […] The Fluorescence Index is expressed as: (experimental mean fluorescence÷background mean fluorescence)−1.
(§2) ^aBinding of peptides to HLA-A2.1 was analyzed using the processing-defective T2 cell line at the indicated peptide concentrations.
In experiment [9] the target is T1, HLA-A*0201. Described as above. This is another data set of the same source.
Experimental: as §1, §2
Experiment [10] has as its target T1, HLA-A*0201. In words: decay of cell-surface HLA-A*0201-peptide complexes at 37 C on emetine-pretreated B-LCL, flow cytometry. On the technique in general: In flow cytometry, cells or beads pass a laser one at a time.
Experimental: Measurement of MHC-peptide complex stability was performed. […] The cells were then mild-acid treated and subsequently loaded with 200 mM of peptide for 1 hour at room temperature. Thereafter, the cells were washed twice to remove free peptide and were incubated at 37° C. for 0, 2, 4 and 6 hours.
In experiment [11] the target is T1, HLA-A*0201. In words: competition with 150 nM FL-labeled reference peptide on mild-acid treated HLA-A*0201+ JY B-LCL at 4 C, flow cytometry.
Text: Subsequently, the cells were washed, fixed with paraformaldehyde and analyzed by flow cytometry. […] The binding capacity of competitor peptides is expressed as the concentration needed to inhibit 50% of binding of the FL-labeled reference peptide (IC₅₀).

What is called IC50 is the midpoint of a concentration-inhibition curve. Higher therefore signals weaker potency in that assay.

Where two headings read alike, the source gives them in different places.

As for “T-cell receptor of Melan-A/MART-1 27-35-reactive TIL 1235 lymphocytes (TCR)”, the % specific lysis by TIL 1235 of T2 target cells preincubated with 1 µM peptide, E:T 20:1 (% specific lysis) in [1] is 40; in [2], -3; in [3] it was 27; in experiment [4] it was -1.
In the case of “T-cell receptor of gp100-reactive TIL 1200 lymphocytes (TCR)”, the % specific lysis by TIL 1200 of T2 target cells preincubated with 1 µM peptide, E:T 20:1 (% specific lysis) in experiment [5] turned out to be 67; in experiment [2], 3. Also, in [6], the peptide titration, sensitization of T2 target cells for lysis by TIL 1200 (FIG. 1) (fold lower concentration than wild type) is 10. For the same molecule, in experiment [6], the peptide titration, sensitization of T2 target cells for lysis by TIL 1200 (FIG. 2) (fold lower concentration than wild type) was 10.
In the case of “Melan-A/MART-1 27-35 epitope-analogue AIGIGLTV (SEQ ID NO: 30) (peptide)”, in the experiment with HLA-A*0201 [7], the Fluorescence Index (HLA-A*0201 stabilization), 25 µM peptide came to 1.29 and the Fluorescence Index (HLA-A*0201 stabilization), 50 µM peptide was 1.58.
As for ATWGQYWQV (synthetic; alanine at position 1) [gp100 154-162 epitope-analogue ATWGQYWQV], in the experiment with HLA-A*0201 [8], the “Fluorescence Index (HLA-A*0201 stabilization), 25 µM peptide” value (“Fluorescence Index … 25 µM peptide” for short) came to 1.42 and the “Fluorescence Index (HLA-A*0201 stabilization), 50 µM peptide” value (“Fluorescence Index … 50 µM peptide” below) was 1.94.

B1: gp100 154-162 epitope-analogue KVWGQYWQV (peptide)
peptide: KVWGQYWQV
notes: synthetic; N-terminal anchor (position 2) replaced by V
In the case of B1, in the experiment with HLA-A*0201 [9], the “Fluorescence Index … 25 µM peptide” value amounted to 1.57 and the “Fluorescence Index … 50 µM peptide” value was found to be 2.13. Also, in the experiment with HLA-A*0201 [10], the “Stability (DT 50%)” value was above 4 h. In the experiment with HLA-A*0201 [11], the IC50 amounted to 800 nM.
For KTWGQAWQV (synthetic; alanine at position 6) [gp100 154-162 epitope-analogue KTWGQAWQV], in the experiment with HLA-A*0201 [8], the “Fluorescence Index … 25 µM peptide” value stood at 1.15 and the “Fluorescence Index … 50 µM peptide” value stood at 1.42.
KTWGAYWQV (synthetic; alanine at position 5) [gp100 154-162 epitope-analogue KTWGAYWQV]: in the experiment with HLA-A*0201 [8], the “Fluorescence Index … 25 µM peptide” value is 1.25 and the “Fluorescence Index … 50 µM peptide” value turned out to be 1.59.

B2: gp100 154-162 epitope-analogue KMWGQYWQV (peptide)
peptide: KMWGQYWQV
notes: synthetic; N-terminal anchor (position 2) replaced by M
As to B2, in the experiment with HLA-A*0201 [9], the “Fluorescence Index … 25 µM peptide” value stood at 1.28 and the “Fluorescence Index … 50 µM peptide” value stood at 1.73.
In the case of KTAGQYWQV (synthetic; alanine at position 3) [gp100 154-162 epitope-analogue KTAGQYWQV], in the experiment with HLA-A*0201 [8], the “Fluorescence Index … 25 µM peptide” value amounted to 1.02 and the “Fluorescence Index … 50 µM peptide” value was 1.17.
With KAWGQYWQV (synthetic; alanine at position 2) [gp100 154-162 epitope-analogue KAWGQYWQV], in the experiment with HLA-A*0201 [8], the “Fluorescence Index … 25 µM peptide” value turned out to be 1.2 and the “Fluorescence Index … 50 µM peptide” value turned out to be 1.57.

B3: gp100 154-162 epitope-analogue KIWGQYWQV (peptide)
peptide: KIWGQYWQV
notes: synthetic; N-terminal anchor (position 2) replaced by I
As for B3, in the experiment with HLA-A*0201 [9], the “Fluorescence Index … 25 µM peptide” value was determined as 1.43 and the “Fluorescence Index … 50 µM peptide” value was determined as 2. For the same molecule, the “Stability (DT 50%)” value with HLA-A*0201 [10] is above 4 h. Further, the IC50 with HLA-A*0201 [11] is 600 nM.
As for KTWGQYWAV (synthetic; alanine at position 8) [gp100 154-162 epitope-analogue KTWGQYWAV], in the experiment with HLA-A*0201 [8], the “Fluorescence Index … 25 µM peptide” value turned out to be 1.35 and the “Fluorescence Index … 50 µM peptide” value came to 1.72. For the same molecule, the “Stability (DT 50%)” value with HLA-A*0201 [10] was above 4 h. In the experiment with HLA-A*0201 [11], this molecule gave an IC50 of 500 nM.
KTWGQYWQA (synthetic; alanine at position 9) [gp100 154-162 epitope-analogue KTWGQYWQA]: in the experiment with HLA-A*0201 [8], the “Fluorescence Index … 25 µM peptide” value was 1.02 and the “Fluorescence Index … 50 µM peptide” value is 1.08.

B4: gp100 154-162 epitope-analogue KLWGQYWQV (peptide)
peptide: KLWGQYWQV
notes: synthetic; N-terminal anchor (position 2) replaced by L
In the case of B4, in the experiment with HLA-A*0201 [9], the “Fluorescence Index … 25 µM peptide” value turned out to be 1.55 and the “Fluorescence Index … 50 µM peptide” value came out at 2.19. For the same molecule, in the experiment with HLA-A*0201 [10], the “Stability (DT 50%)” value is above 4 h. The molecule also showed an IC50 in the experiment with HLA-A*0201 [11] of 400 nM.
With KTWGQYAQV (synthetic; alanine at position 7) [gp100 154-162 epitope-analogue KTWGQYAQV], in the experiment with HLA-A*0201 [8], the “Fluorescence Index … 25 µM peptide” value turned out to be 1.14 and the “Fluorescence Index … 50 µM peptide” value amounted to 1.31.

(Values after patent US20040156861A1 (US Dept. of Health and Human Services, published 2004).)
